B1: POU domain, class 3, transcription factor 1, residues 247 to 324; numbered along this chain, Q03052 (parent)
chain: EDAPSSDDLEQFAKQFKQRRIKLGFTQADVGLALGTLYGNVFSQTTICRFEALQLSFKNMCKLKPLLNKWLEETDSSS

Variants of: B1
Assay: abundance fitness (aPCA) (normalised: wild type 0, dead -1); higher = more abundant; growth selection in yeast, the domain comes from the species named
Conditions: Homo sapiens

Abundance fitness: each site, then its substitutions
G39: R -0.198 | A -0.365 | S -0.258 | E -0.344 | V -0.846 | P -0.124 | D -0.192
T36: R 0.089 | P -0.262 | F -0.659 | S 0.134 | V -0.36 | K 0.111 | C -0.18 | D 0.112 | W -0.532 | G -0.166 | Y -0.416 | M 0.02 | I -0.178 | H -0.299 | Q 0.032 | E 0.158 | A -0.162 | N -0.025 | L -0.154
V41: C -0.142 | L -0.127 | P 0.087 | I 0.025 | F -0.427 | D -0.141 | S 0.05 | Y -0.079 | K 0.141 | G 0.016 | M 0.03 | N 0.116 | H 0.253 | Q 0.093 | R -0.035 | E 0.058 | A -0.018
F42: K -0.656 | S -0.365 | Q 0.001 | W -0.191 | H -0.226 | G -0.594 | E -0.114 | D -0.295 | I 0.231 | Y 0.048 | M 0.014 | N -0.597 | L -0.043 | T -0.071 | V 0.064 | P -0.265 | R -0.493
G35: S 0.064 | R 0.005 | Y -0.313 | V -0.641 | W -0.439 | T 0.236
N40: Q 0.103 | P -0.276 | S 0.004 | F -0.167 | K 0.263 | W -0.244 | A -0.179 | T 0.031 | D 0.062 | E 0.031 | R 0.07 | M -0.126 | V -0.131 | Y -0.282 | H -0.179 | G 0.008 | L -0.237 | I -0.117

— the Human Domainome abundance scans (Beltran et al. 2025)
